These results are taken from article PMC11840787, “Detection of an Intermediate in the Unfolding Process of the N-Terminal Domain of TDP-43” (ACS Omega, 2025).

Data set [1] addresses TDP-43 NTD (Homo sapiens) (UniProt Q13148). Particulars: cited from earlier work.
Data set [2] deals with TDP-43 (oligomer, isodesmic) NTD (Homo sapiens) (UniProt Q13148). Particulars: cited from earlier work.
Data set [3] concerns the molecule itself. In words: dynamic light scattering; 0.5 mg/mL (45 uM) protein in 4.5 M urea, DH recorded every 5 s, linear fit extrapolated to 0 s (unfolding intermediate).

What is called Kd is the free concentration of one partner at which half of the binding sites on the other are occupied at equilibrium, for simple one-to-one binding. As for TDP-43 NTD (from UniProt Q13148), the results for the Kd in data set [1] and in data set [2] were 2400 nM and 40 µM, respectively.

B1: TDP-43 NTD (N-terminal domain of TAR DNA-binding protein 43), noncleaved, 99 residues (domain or fragment, UniProt Q13148 1-77, looked up)
chain: MSEYIRVTEDENDEPIEIPSEDDGTVLLSTVTAQFPGACGLRYRNPVSQCMRGVRLVEGILHAPDAGWGNLVYVVNY
notes: 99 residues in all with the 22-residue N-terminal tag, 11,081.29 Da; A cleaved 78-residue variant was used only for fluorescence kinetics, not for any test of the oligomeric state; also called noncleaved TDP-43 NTD; source: purified
What is called stoichiometry N is the number of molecules, sites or subunits per partner or assembly. Regarding B1, in data set [3], the “stoichiometry N” value is 2.
